How the values were obtained:
[1] = biological target: TbMscL L42C, spin-labeled with MTSSL (Mycobacterium tuberculosis) (UniProt P9WJN5); assay: SEC
[2] = biological target: TbMscL R98C, spin-labeled with MTSSL (Mycobacterium tuberculosis) (UniProt P9WJN5); assay: SEC
[3] = biological target: TbMscL K100R1-F88W (Mycobacterium tuberculosis) (UniProt P9WJN5); assay: SEC
[4] = biological target: TbMscL L73C, spin-labeled with MTSSL (Mycobacterium tuberculosis) (UniProt P9WJN5); assay: SEC
[5] = biological target: TbMscL V112C, spin-labeled with MTSSL (Mycobacterium tuberculosis) (UniProt P9WJN5); assay: SEC
[6] = biological target: TbMscL F5C, spin-labeled with MTSSL (Mycobacterium tuberculosis) (UniProt P9WJN5); assay: SEC
[7] = biological target: TbMscL K100R1-L89W (Mycobacterium tuberculosis) (UniProt P9WJN5); assay: SEC
[8] = biological target: TbMscL L2C, spin-labeled with MTSSL (Mycobacterium tuberculosis) (UniProt P9WJN5); assay: SEC
[9] = biological target: TbMscL E102C, spin-labeled with MTSSL (Mycobacterium tuberculosis) (UniProt P9WJN5); assay: SEC
[10] = biological target: TbMscL E102C, spin-labeled with MTSSL (Mycobacterium tuberculosis) (UniProt P9WJN5); assay: SEC; samples thawed after PELDOR measurements and run over SEC
[11] = biological target: TbMscL K99C, spin-labeled with MTSSL (Mycobacterium tuberculosis) (UniProt P9WJN5); assay: SEC
[12] = biological target: TbMscL V48C, spin-labeled with MTSSL (Mycobacterium tuberculosis) (UniProt P9WJN5); assay: SEC
[13] = biological target: TbMscL L89C, spin-labeled with MTSSL (Mycobacterium tuberculosis) (UniProt P9WJN5); assay: SEC
[14] = biological target: TbMscL L73R1-L89W (Mycobacterium tuberculosis) (UniProt P9WJN5); assay: SEC
[15] = biological target: TbMscL F79C, spin-labeled with MTSSL (Mycobacterium tuberculosis) (UniProt P9WJN5); assay: SEC
[16] = biological target: TbMscL N70R1-L89W (Mycobacterium tuberculosis) (UniProt P9WJN5); assay: SEC
[17] = biological target: TbMscL F84C, spin-labeled with MTSSL (Mycobacterium tuberculosis) (UniProt P9WJN5); assay: SEC
[18] = biological target: TbMscL A85C, spin-labeled with MTSSL (Mycobacterium tuberculosis) (UniProt P9WJN5); assay: SEC
[19] = biological target: TbMscL N70C, spin-labeled with MTSSL (Mycobacterium tuberculosis) (UniProt P9WJN5); assay: SEC
[20] = biological target: TbMscL Y87C, spin-labeled with MTSSL (Mycobacterium tuberculosis) (UniProt P9WJN5); assay: SEC
[21] = biological target: TbMscL F88C, spin-labeled with MTSSL (Mycobacterium tuberculosis) (UniProt P9WJN5); assay: SEC
[22] = biological target: TbMscL L72C, spin-labeled with MTSSL (Mycobacterium tuberculosis) (UniProt P9WJN5); assay: SEC
[23] = biological target: TbMscL L72R1-L89W (Mycobacterium tuberculosis) (UniProt P9WJN5); assay: SEC
[24] = biological target: TbMscL L72R1-L89W (Mycobacterium tuberculosis) (UniProt P9WJN5); assay: SEC; samples thawed after PELDOR measurements and run over SEC
[25] = biological target: TbMscL K100C, spin-labeled with MTSSL (Mycobacterium tuberculosis) (UniProt P9WJN5); assay: SEC
[26] = biological target: TbMscL F34C, spin-labeled with MTSSL (Mycobacterium tuberculosis) (UniProt P9WJN5); assay: SEC
[27] = biological target: TbMscL I23C, spin-labeled with MTSSL (Mycobacterium tuberculosis) (UniProt P9WJN5); assay: SEC

Substance: TbMscL L42C, spin-labeled with MTSSL (from UniProt P9WJN5 1-151) (natural protein)
- stoichiometry N [1]: 5

Substance: TbMscL R98C, spin-labeled with MTSSL (from UniProt P9WJN5 1-151) (natural protein)
- stoichiometry N [2]: 5

Substance: TbMscL K100R1-F88W (from UniProt P9WJN5 1-151) (natural protein)
- stoichiometry N [3]: 5

Substance: TbMscL L73C, spin-labeled with MTSSL (from UniProt P9WJN5 1-151) (natural protein)
- stoichiometry N [4]: 5

Substance: TbMscL V112C, spin-labeled with MTSSL (from UniProt P9WJN5 1-151) (natural protein)
- stoichiometry N [5]: 5

Substance: TbMscL F5C, spin-labeled with MTSSL (from UniProt P9WJN5 1-151) (natural protein)
- stoichiometry N [6]: 5

Substance: TbMscL K100R1-L89W (from UniProt P9WJN5 1-151) (natural protein)
- stoichiometry N [7]: 5

Substance: TbMscL L2C, spin-labeled with MTSSL (from UniProt P9WJN5 1-151) (natural protein)
- stoichiometry N [8]: 5

Substance: TbMscL E102C, spin-labeled with MTSSL (from UniProt P9WJN5 1-151) (natural protein)
- stoichiometry N [9]: 5
- stoichiometry N [10]: 5

Substance: TbMscL K99C, spin-labeled with MTSSL (from UniProt P9WJN5 1-151) (natural protein)
- stoichiometry N [11]: 5

Substance: TbMscL V48C, spin-labeled with MTSSL (from UniProt P9WJN5 1-151) (natural protein)
- stoichiometry N [12]: 5

Substance: TbMscL L89C, spin-labeled with MTSSL (from UniProt P9WJN5 1-151) (natural protein)
- stoichiometry N [13]: 5

Substance: TbMscL L73R1-L89W (from UniProt P9WJN5 1-151) (natural protein)
- stoichiometry N [14]: 5

Substance: TbMscL F79C, spin-labeled with MTSSL (from UniProt P9WJN5 1-151) (natural protein)
- stoichiometry N [15]: 5

Substance: TbMscL N70R1-L89W (from UniProt P9WJN5 1-151) (natural protein)
- stoichiometry N [16]: 5

Substance: TbMscL F84C, spin-labeled with MTSSL (from UniProt P9WJN5 1-151) (natural protein)
- stoichiometry N [17]: 5

Substance: TbMscL A85C, spin-labeled with MTSSL (from UniProt P9WJN5 1-151) (natural protein)
- stoichiometry N [18]: 5

Substance: TbMscL N70C, spin-labeled with MTSSL (from UniProt P9WJN5 1-151) (natural protein)
- stoichiometry N [19]: 5

Substance: TbMscL Y87C, spin-labeled with MTSSL (from UniProt P9WJN5 1-151) (natural protein)
- stoichiometry N [20]: 5

Substance: TbMscL F88C, spin-labeled with MTSSL (from UniProt P9WJN5 1-151) (natural protein)
- stoichiometry N [21]: 5

Substance: TbMscL L72C, spin-labeled with MTSSL (from UniProt P9WJN5 1-151) (natural protein)
- stoichiometry N [22]: 5

Substance: TbMscL L72R1-L89W (from UniProt P9WJN5 1-151) (natural protein)
- stoichiometry N [23]: 5
- stoichiometry N [24]: 5

Substance: TbMscL K100C, spin-labeled with MTSSL (from UniProt P9WJN5 1-151) (natural protein)
- stoichiometry N [25]: 5

Substance: TbMscL F34C, spin-labeled with MTSSL (from UniProt P9WJN5 1-151) (natural protein)
- stoichiometry N [26]: 5

Substance: TbMscL I23C, spin-labeled with MTSSL (from UniProt P9WJN5 1-151) (natural protein)
- stoichiometry N [27]: 5

— PMC6787021
